In US20190338035A1 (EUREKA THERAPEUTICS, published 2019):

What was measured:
[1] = molecular target: T1, HLA-A*02:01 on T2 cells without peptide loading (human); assay: flow cytometry, scFv phage on T2 cells, anti-M13 + labelled anti-mouse IgG
T1 construct: whole, on cells; TAP-deficient T2 cells with no exogenous peptide

[2] = molecular target: T2, control peptide mixture P20/HLA-A*02:01 complexes on T2 cells (human); assay: as above
T2 construct: whole, on cells; A pool of 20 different peptide/HLA-A*02:01 complexes on one cell population, not a single complex; also called T2-P20

[3] = molecular target: T3, WT H3.3 26-35 peptide/HLA-A*02:01 complex on T2 cells (human); assay: as above
T3 construct: whole, on cells; T2 cells pulsed with the synthetic peptide; also called T2-WT H3.3; T2-WT 3.3

[4] = molecular target: T1, HLA-A*02:01 on T2 cells without peptide …; assay: T2 stabilisation assay, BB7.2 staining, flow cytometry
[5] = molecular target: T1, HLA-A*02:01 on T2 cells without peptide …; assay: flow cytometry, scFv phage on T2 cells, anti-M13 + PE anti-mouse IgG
[6] = molecular target: T2, control peptide mixture P20/HLA-A*02:01 …; assay: as above
[7] = molecular target: T3, WT H3.3 26-35 peptide/HLA-A*02:01 …; assay: as above
[8] = molecular target: T4, WT H3.1 26-35 peptide/HLA-A*02:01 complex on T2 cells (human); assay: as above
T4 construct: whole, on cells; T2 cells pulsed with the synthetic peptide; also called T2-WT H3.1; T2-WT 3.1

[9] = molecular target: T1, HLA-A*02:01 on T2 cells without peptide …; assay: flow cytometry, scFv phage on T2 cells

Binder | Median MFI (PE-A) [2] [MFI] | Median MFI (PE-A) [3] [MFI] | Median MFI (PE-A) [6] [MFI] | Median MFI (PE-A) [7] [MFI] | Median MFI (PE-A) [8] [MFI] | further results
Phage clone 34 (scFv) scFv: QSVLTQPPSVSGAPGQRVTISCTGSSLNLGAGYDVHWYQQFPGTAPKLLIFANTNRPSGVPDRFSASKSGTSASLAITGLQAEDEADYFCQSYDNSLSGYVFGTGTKVTVLGSRGGGGSGGGGSGGGGSLEMAQVQLVQSGAEVKKPGSSVKVSCKASGGTFSSYAISWVRQAPGQGLEWMGGIIPIFGTANYAQKFQGRVTITADESTSTAYMELSSLRSEDTAVYYCARSYWTFEYSIDSWGQGTLVTVSS | 109 | 8340 | – | – | – | Median MFI (PE-A) [1]: 109 MFI
Phage clone 38 (scFv, fusion to the phage coat protein not described) scFv: SYELTQPPSVSVAPGKTARITCGGNNIGSKSVNWYQQKPGQAPVLVIYYDNDRPSGIPERFSGSNSGNTATLTISRVEAGDEADYYCQVWNSSSDHYVFGTGTKVTVLGSRGGGGSGGGGSGGGGSLEMAQMQLVQSGAEVKTTGASVRVSCKASGYTFTDYYLHWVRQAPGQGLEWMGWINPHSGGTNYAQKFQGRVTMTRDTSISTAYMELSSLRSDDTAVYYCAREDYSGSGSSDAWGQGTLVTVSS | 128 | 32900 | – | – | – | Median MFI (PE-A) [1]: 66 MFI
Phage clone 33 (scFv, fusion to the phage coat protein not described) scFv: QSVLTQPPSVSGAPGQRVTIFCTGSSSNIGAGYDVHWYQQLPGTAPKLLIYGNNNRPSGVPDRFSGSKSGTSASLAITGLQAEDEADYYCQSYDTSLTPVFGGGTKLTVLGSRGGGGSGGGGSGGGGSLEMAEVQLVQSGAEVRKPGSSVKVSCKASAGTFNRYSLSWVRQAPGQGLEWVGRIIPIIGVADYAQKFQGRVTITADKSATTAYMELHSLRSEDTAVYYCARQEYSYAMDYWGQGTLVTVSS | 2860 | 49100 | – | – | – | –
Phage clone 36 (scFv, fusion to the phage coat protein not described) scFv: SSELTQDPAVSVALGQTVRITCQGDSLRSYYANWYQQKPGQAPVLVIYAKSNRPSGIADRFSGSSSGNTASLTITGAQAEDEADYYCNSRDSSGNRWVFGGGTKVTVLGSRGGGGSGGGGSGGGGSLEMAEVQLVQSGAEVKKPGASVKVSCKASGYTFTGYYMHWVRQAPGKGLEWMGGFDPEDGETIYAQKFQGRVTMTEDTSTDTAYMELSSLRSEDTAVYYCARSSWWSPVTYYDIWGQGTLVTVSS | 11000 | 33600 | – | – | – | –
Phage clone 35 (scFv) scFv: SYVLTQPPSASGTPGQRVTISCSGSTFNIGSNTVNWYQQLPATAPKLLIYSNNQRPSGVPDRFSGSKSGTSASLAISGLQSEDAAAYYCAAWDDSLSGHVVFGGGTKLTVLGSRGGGGSGGGGSGGGGSLEMAEVQLVQSGAEVKKPGASVKVSCKASGYTFTSYGISWVRQAPGQGLEWMGWISAYNGNTNYAQKLQGRVTMTTDTSTSTAYMELRSLRSDDTAVYYCARYYESGYPFDWWGQGTLVTVSS | 124 | 84200 | – | – | – | Median MFI (PE-A) [1]: 125 MFI
RKSAPATGGV (Free synthetic peptide pulsed onto T2 cells; also called H3.1 26-35 WT peptide) [WT H3.1 26-35 peptide] | – | – | – | – | – | binding result [4]: binds
RMSAPATGGV (Free synthetic peptide pulsed onto T2 cells) [mutant histone K27M-H3.1 26-35 peptide] | – | – | – | – | – | binding result [4]: binds
RMSAPSTGGV (Free synthetic peptide pulsed onto T2 cells) [mutant histone K27M-H3.3 26-35 peptide] | – | – | – | – | – | binding result [4]: binds
Phage clone 32 (scFv) scFv: QSVLTQPPSVSGAPGQRVTISCTGSSSNLGAGYDVHWYQQLPGTAPKVLVYFNNNRPSGVPDRFSGSKSGTSASLAITGLQAEDEADYYCQSYDSSLSASVFGTGTKVTVLGSRGGGGSGGGGSGGGGSLEMAQVQLVESGAEVKKPGASVKVSCKASGYTFTSYTITWVRQAPGQGLEWMGWISPYNGNTNYAQNLQGRVTMTTDTSTTTAYMELRSLTSDDTAVYYCARSWEHGFPYDEWGQGTLVTVSS | 146 | 90800 | – | – | – | Median MFI (PE-A) [1]: 132 MFI
Phage clone 10 (scFv, fusion to the phage coat protein not described) scFv: EIVLTQSPLSLPVTLGQPASISCRSSQSLVYSNGNTYLSWFHQRPGQSPRRLIYKVSKRDSGVPDRFSGSGSGTDFTLKISRVEAEDVGVFYCMQGTYWPYTFGQGTKLEIKRSRGGGGSGGGGSGGGGSLEMAEVQLVQSGAEVKKPGESLKISCKGSGYSFTSYWIGWVRQMPGKGLEWMGIIYPGDSDTRYSPSFQGQVTISADKSISTAYLQWSSLKASDTAMYYCARGFDNWGQGTLVTVSS | – | – | 2010 | 849 | 770 | Median MFI (PE-A) [5]: 686 MFI
Phage clone 13 (scFv, fusion to the phage coat protein not described) scFv: DVVMTQSPLSLPVTLGQPASISCRSSQSLIYSNGNTYLTWFHQRPGQPPRRLIHKVSNRDSGVPDRFSGSGSGSDFTLKISRVEAEDVGIYYCMQGTHWPPTFGGGTKLEIKRSRGGGGSGGGGSGGGGSLEMAEVQLVQSGAEVKKPGESLKISCKGSGYSFTSYWIGWVRQMPGKGLEWMGIIYPGDSDTRYSPSFQGQVTISADKSISTAYLQWSSLKASDTAMYYCARGYDVWGQGTLVTVSS | – | – | 1560 | 784 | 761 | Median MFI (PE-A) [5]: 543 MFI
Phage clone 16 (scFv, fusion to the phage coat protein not described) scFv: DVVMTQSPLSLPVTLGQPASISCRSSQSLIYSNGNTYLTWFHQRPGQPPRRLIHKVSNRDSGVPDRFSGSGSGSDFTLKISRVEAEDVGIYYCMQGTHWPPTFGGGTKLEIKRSRGGGGSGGGGSGGGGSLEMAEVQLVQSGAEVKKPGESLKISCKGSGYSFTSYWIGWVRQMPGKGLEWMGIIYPGDSDTRYSPSFQGQVTISADKSISTAYLQWSSLKASDTAMYYCARGYDSWGQGTLVTVSS | – | – | 4190 | 2440 | 2320 | Median MFI (PE-A) [5]: 1700 MFI
Phage clone 5 (scFv, fusion to the phage coat protein not described; also called anti-HMC scFv 5) scFv: DVVMTQSPLSLPVTLGQPASISCRSSQSLVYSNGNTYLNWFHQRPGQSPRRLIYEVSNRDSGVPDRFSGSGSGTDFTLKISRVEAEDVGVYYCMQGTHWPPTFGGGTKLEIKRSRGGGGSGGGGSGGGGSLEMAEVQLVQSGAEVKKPGESLKISCKGSGYSFTSYWIGWVRQMPGKGLEWMGIIYPGDSDTRYSPSFQGQVTISADKSISTAYLQWSSLKASDTAMYYCARGYDGWGQGTLVTVSS | – | – | 703 | 305 | 320 | –
Phage clone 31 (scFv, fusion to the phage coat protein not described) scFv: QAVLTQPSSLSASPGASASLTCTLRSGINVGTYRIYWYQQKPGSPPQYLLRYKSDSDKQQGSGVPSRFSGSKDASANAGILLISGLQSEDEADYYCMIWHSSAWVFGGGTKLTVLGSRGGGGSGGGGSGGGGSLEMAEVQLVESGGGLVQPGGSLRLSCAASGLTFDRYAMSWVRQAAGKGLERFSAITGDGYYTYYADSVKGRFTISRDNSKNTLYLQMNSLGAEDTAVYYCARLSGIGRSSYDGWGQGTLVTVSS | – | – | 128 | 777 | 529 | binding result [9]: no binding; Median MFI (PE-A) [5]: 125 MFI
